The target in the experiment is BLyS receptors on human B cells (human (endogenous in peripheral blood B cells)).

The substance “FLAG-tagged murine BLyS (from UniProt Q9WU72 127-309) (ligand)” yielded a nuclear localization of NF-κB p52 in human B cells after 48 h with 100 ng/ml BLyS (Western blot of nuclear extracts, three B cell preparations), fold over unstimulated B cells of 2.4 fold.

On to “recombinant human FLAG-tagged BLyS (from UniProt Q9Y275 134-285) (ligand)”, for which the nuclear localization of NF-κB p52 in human B cells after 48 h with 100 ng/ml BLyS (Western blot of nuclear extracts, three B cell preparations), fold over unstimulated B cells was found to be 7.1 fold.

(Values after paper PMC2527131.)
